First the molecules themselves.
T1: P26 (human, UniProt P02771 381-609, limits assumed)
T1 construct: also called AFP p26
T1 sequence: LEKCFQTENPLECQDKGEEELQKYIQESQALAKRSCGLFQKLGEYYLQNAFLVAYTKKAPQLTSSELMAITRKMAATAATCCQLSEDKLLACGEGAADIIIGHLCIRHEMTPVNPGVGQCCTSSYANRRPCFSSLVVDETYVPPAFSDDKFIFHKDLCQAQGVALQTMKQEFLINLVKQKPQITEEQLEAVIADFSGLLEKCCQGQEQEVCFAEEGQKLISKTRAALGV

B1: D domain SEQ ID NO: 949 (designed binder)
chain: MGSWTLFKWDLAFIKWQLEALGGSEAELAWFEYEIAAFEDSLQNYKGKGNPEVEALRKEAAAIRDELQAYRHN
B2: D domain SEQ ID NO: 950 (designed binder)
chain: MGSWILFKEDLAFIKWQLEALGGSEAELAWFETTIANFESDLQKYKGKGNPEVEALRKEAAAIRDELQAYRHN
B3: D domain SEQ ID NO: 945 (designed binder)
chain: MGSWKLFKYELAWIKWRLEALGGSEAELADFEASIAQFEKYLQTYKGKGNPEVEALRKEAAAIRDELQAYRHN
B4: D domain SEQ ID NO: 946 (designed binder)
chain: MGSWYLFKNELAWIKWRLEALGGSEAELADFEMVIAMFEDHLQEYKGKGNPEVEALRKEAAAIRDELQAYRHN
B5: D domain SEQ ID NO: 954 (designed binder)
chain: MGSWVRFKTELAYIKESLEALGGSEAELAMFESEIAIFEHSLQTYKGKGNPEVEALRKEAAAIRDELQAYRHN
B6: D domain SEQ ID NO: 947 (designed binder)
chain: MGSWVYFKAHLAFIKWELEALGGSEAELANFESTIAEFEKYLQVYKGKGNPEVEALRKEAAAIRDELQAYRHN
B7: D domain SEQ ID NO: 956 (designed binder)
chain: MGSWYWFKYELAEIKWHLEALGGSEAELAHFEHSIAVFESQLQQYKGKGNPEVEALRKEAAAIRDELQAYRHN
B8: D domain SEQ ID NO: 953 (designed binder)
chain: MGSWYIFKQELASIKLSLEALGGSEAELAHFEAEIAWFEWWLQWYKGKGNPEVEALRKEAAAIRDELQAYRHN
B9: D domain SEQ ID NO: 948 (designed binder)
chain: MGSWMYFKSHLAWIKWELEALGGSEAELAFFEDNIAQFEYWLQLYKGKGNPEVEALRKEAAAIRDELQAYRHN
B10: D domain SEQ ID NO: 957 (designed binder)
chain: MGSWWVFKKTLAEIKWTLEALGGSEAELAYFEAEIAFFEFILQQYKGKGNPEVEALRKEAAAIRDELQAYRHN
B11: D domain SEQ ID NO: 965 (designed binder)
chain: MGSWTHFKEDLAHIKDRLEALGGSEAELAAFELDIAWFEFMLQYYKGKGNPEVEALRKEAAAIRDELQAYRHN
B12: D domain SEQ ID NO: 958 (designed binder)
chain: MGSWVYFKDHLAEIKSQLEALGGSEAELALFEYDIAWFEFILQYYKGKGNPEVEALRKEAAAIRDELQAYRHN
B13: D domain SEQ ID NO: 963 (designed binder)
chain: MGSWLAFKEDLAHIKSILEALGGSEAELAEFEHDIAWFEYMLQYYKGKGNPEVEALRKEAAAIRDELQAYRHN
B14: D domain SEQ ID NO: 959 (designed binder)
chain: MGSWVYFKHRLAEIKDQLEALGGSEAELAEFETDIAWFEWMLQYYKGKGNPEVEALRKEAAAIRDELQAYRHN
B15: D domain SEQ ID NO: 951 (designed binder)
chain: MGSWYFFKSRLAYIKVYLEALGGSEAELAGFEWEIAHFEEWLQRYKGKGNPEVEALRKEAAAIRDELQAYRHN
B16: D domain SEQ ID NO: 952 (designed binder)
chain: MGSWYIFKSELAWIKWYLEALGGSEAELANFEVEIATFETWLQGYKGKGNPEVEALRKEAAAIRDELQAYRHN
B17: D domain SEQ ID NO: 955 (designed binder)
chain: MGSWYLFKTELAAIKYRLEALGGSEAELASFEYEIAWFEHILQFYKGKGNPEVEALRKEAAAIRDELQAYRHN

The assay deals with T1, P26. Nature of the assay: ELISA, format not described. Details: unit not given here. (In general: In an ELISA, binding on a coated surface is turned into a signal by an enzyme label.)
On to B1, for which the ELISA_avg is 12.1.

In the case of B2, the ELISA_avg was found to be 23.3.

B3 yielded an ELISA_avg of 23.4.

Molecule B4 gave an ELISA_avg of 31.1.

B5 returned an ELISA_avg of 20.5.

On to B6, for which the ELISA_avg was 20.8.

Regarding B7, the ELISA_avg was found to be 21.5.

As to B8, the ELISA_avg was found to be 19.4.

For the molecule B9, the ELISA_avg was determined as 19.8.

In turn, B10 showed an ELISA_avg of 18.6.

As for B11, the ELISA_avg came to 30.4.

B12: the ELISA_avg came to 22.1.

B13 registered an ELISA_avg of 18.6.

Regarding B14, the ELISA_avg worked out at 11.1.

In turn, B15 registered an ELISA_avg of 30.1.

In turn, B16 returned an ELISA_avg of 29.6.

For B17, the ELISA_avg was 20.1.

The values are drawn from patent US20250026849A1 (ARCELLX, published 2025).
